Laboratory results taken from the RNAGym collection of RNA variant scans (doi:10.7554/elife.80360).

B1: CPEB3 Ribozyme (parent)
chain: GGGGGCCACAGCAGAAGCGUUCACGUCGCGGCCCCUGUCAGAUUCUGGUGAAUCUGCGAAUUCUGCUGU

Variants of: B1
Test: self-cleavage, relative activity (ratio to wild type); higher = more cleavage; co-transcriptional

Variant	self-cleavage
GGGGGCCACAGCAGAAGCGUUCACGUCGCGGCCCCUGUCAGAUUCUGUUGAAUCUGCGAUUUCUGCUGU [G48U A60U]	0.561
GGGGGCCACAGCAGAAGCGUUCACGUCGCGGCCCCUGUCAGAUUCUGGGGAAUCUGCGGAUUCUGCUGU [U49G A59G]	0.96
GGGGGCCACAGCAGAAGCGUUCACGUCGCGGCCCCUGUCAGAUUCUGGGGAAUCUGCGUAUUCUGCUGU [U49G A59U]	0.835
GGGGGCCACAGCAGAAGCGUUCACGUCGCGGCCCCUGUCAGAUUCUGGCGAAUAUGCGAAUUCUGCUGU [U49C C54A]	0.782
GGGGGCCACAGCAGAAGCGUUCACGUCGCGGCCCCUGUCAGAUUCUGUUGAAUCUGCGAAGUCUGCUGU [G48U U61G]	0.958
GGGGGCCACAGCAGAAGCGUUCACGUCGCGGCCCCUGUCAGAUUCUGGAGAAUCUGUGAAUUCUGCUGU [U49A C57U]	0.379
GGGGGCCACAGCAGAAGCGUUCACGUCGCGGCCCCUGUCAGAUUCUGCUGAAUCUGCUAAUUCUGCUGU [G48C G58U]	0.969
GGGGGCCACAGCAGAAGCGUUCACGUCGCGGCCCCUGUCAGAUUCUGGAGAAUCUGCGAAUUCUGCUGC [U49A U69C]	1.06
GGGGGCCACAGCAGAAGCGUUCACGUCGCGGCCCCUGUCAGAUUCUGGAGAAUCUGCGAAUUCUGCUGA [U49A U69A]	0.976
GGGGGCCACAGCAGAAGCGUUCACGUCGCGGCCCCUGUCAGAUUCUGGCGAAUCUACGAAUUCUGCUGU [U49C G56A]	0.935
GGGGGCCACAGCAGAAGCGUUCACGUCGCGGCCCCUGUCAGAUUCUGGCGAAUCUUCGAAUUCUGCUGU [U49C G56U]	0.948
GGGGGCCACAGCAGAAGCGUUCACGUCGCGGCCCCUGUCAGAUUCUGGCGAAUCUGCCAAUUCUGCUGU [U49C G58C]	0.993
GGGGGCCACAGCAGAAGCGUUCACGUCGCGGCCCCUGUCAGAUUCUGCUGAAUCCGCGAAUUCUGCUGU [G48C U55C]	0.963
GGGGGCCACAGCAGAAGCGUUCACGUCGCGGCCCCUGUCAGAUUCUGCUGAAUCGGCGAAUUCUGCUGU [G48C U55G]	0.864
GGGGGCCACAGCAGAAGCGUUCACGUCGCGGCCCCUGUCAGAUUCUGGCGAAUCUGCGAAAUCUGCUGU [U49C U61A]	0.911
GGGGGCCACAGCAGAAGCGUUCACGUCGCGGCCCCUGUCAGAUUCUGGCGAAUCUGCGAACUCUGCUGU [U49C U61C]	0.816
GGGGGCCACAGCAGAAGCGUUCACGUCGCGGCCCCUGUCAGAUUCUGCUGAAUCUUCGAAUUCUGCUGU [G48C G56U]	0.962
GGGGGCCACAGCAGAAGCGUUCACGUCGCGGCCCCUGUCAGAUUCUGCUGAAUCUGCGAAUUCGGCUGU [G48C U64G]	0.974
GGGGGCCACAGCAGAAGCGUUCACGUCGCGGCCCCUGUCAGAUUCUGCUGAAUCUGCGAAUUCAGCUGU [G48C U64A]	0.864
GGGGGCCACAGCAGAAGCGUUCACGUCGCGGCCCCUGUCAGAUUCUGGAGAAUCUGCGAAUUCAGCUGU [U49A U64A]	0.942
GGGGGCCACAGCAGAAGCGUUCACGUCGCGGCCCCUGUCAGAUUCUGGAGAAUCUGCGAAUUCUUCUGU [U49A G65U]	0.821
GGGGGCCACAGCAGAAGCGUUCACGUCGCGGCCCCUGUCAGAUUCUGGCGAAUCGGCGAAUUCUGCUGU [U49C U55G]	0.816
GGGGGCCACAGCAGAAGCGUUCACGUCGCGGCCCCUGUCAGAUUCUGUUGAAUCUGCGAAUGCUGCUGU [G48U U62G]	0.927
GGGGGCCACAGCAGAAGCGUUCACGUCGCGGCCCCUGUCAGAUUCUGUUGAAUCUGCGAAUACUGCUGU [G48U U62A]	0.922
GGGGGCCACAGCAGAAGCGUUCACGUCGCGGCCCCUGUCAGAUUCUGGCAAAUCUGCGAAUUCUGCUGU [U49C G50A]	0.981
GGGGGCCACAGCAGAAGCGUUCACGUCGCGGCCCCUGUCAGAUUCUGGCGAAUCUGCGAAUUCUGAUGU [U49C C66A]	0.77

Variant	self-cleavage
GGGGGCCACAGCAGAAGCGUUCACGUCGCGGCCCCUGUCAGAUUCUGCUGAAUCUGUGAAUUCUGCUGU [G48C C57U]	0.32
GGGGGCCACAGCAGAAGCGUUCACGUCGCGGCCCCUGUCAGAUUCUGUUGAAUCUGCGGAUUCUGCUGU [G48U A59G]	0.993
GGGGGCCACAGCAGAAGCGUUCACGUCGCGGCCCCUGUCAGAUUCUGUUGAAUCUGCCAAUUCUGCUGU [G48U G58C]	0.999
GGGGGCCACAGCAGAAGCGUUCACGUCGCGGCCCCUGUCAGAUUCUGGAGAUUCUGCGAAUUCUGCUGU [U49A A52U]	1.02
GGGGGCCACAGCAGAAGCGUUCACGUCGCGGCCCCUGUCAGAUUCUGGAGACUCUGCGAAUUCUGCUGU [U49A A52C]	1
GGGGGCCACAGCAGAAGCGUUCACGUCGCGGCCCCUGUCAGAUUCUGUUGAAUCUGCGAAUUCUGGUGU [G48U C66G]	0.937
GGGGGCCACAGCAGAAGCGUUCACGUCGCGGCCCCUGUCAGAUUCUGGAGAAUCUGCGAAUUCUGCGGU [U49A U67G]	1.03
GGGGGCCACAGCAGAAGCGUUCACGUCGCGGCCCCUGUCAGAUUCUGGAGAAUCUGCGAAUUCUGCCGU [U49A U67C]	0.99
GGGGGCCACAGCAGAAGCGUUCACGUCGCGGCCCCUGUCAGAUUCUGGAGAAUCUGCGAAUGCUGCUGU [U49A U62G]	0.919
GGGGGCCACAGCAGAAGCGUUCACGUCGCGGCCCCUGUCAGAUUCUGGAGAAUCUGCGAAUUCUGCUUU [U49A G68U]	0.982
GGGGGCCACAGCAGAAGCGUUCACGUCGCGGCCCCUGUCAGAUUCUGCUGAAUCUGCGAAUUCUGUUGU [G48C C66U]	0.998
GGGGGCCACAGCAGAAGCGUUCACGUCGCGGCCCCUGUCAGAUUCUGGAGAAUCUGCGAACUCUGCUGU [U49A U61C]	0.91
GGGGGCCACAGCAGAAGCGUUCACGUCGCGGCCCCUGUCAGAUUCUGUUGAAUCAGCGAAUUCUGCUGU [G48U U55A]	1
GGGGGCCACAGCAGAAGCGUUCACGUCGCGGCCCCUGUCAGAUUCUGGAGAAUCCGCGAAUUCUGCUGU [U49A U55C]	0.895
GGGGGCCACAGCAGAAGCGUUCACGUCGCGGCCCCUGUCAGAUUCUGGAGAAUCGGCGAAUUCUGCUGU [U49A U55G]	0.907
GGGGGCCACAGCAGAAGCGUUCACGUCGCGGCCCCUGUCAGAUUCUGGCGAAUCUGCGAGUUCUGCUGU [U49C A60G]	0.955
GGGGGCCACAGCAGAAGCGUUCACGUCGCGGCCCCUGUCAGAUUCUGUUGAAUUUGCGAAUUCUGCUGU [G48U C54U]	1.02
GGGGGCCACAGCAGAAGCGUUCACGUCGCGGCCCCUGUCAGAUUCUGUUGAAUAUGCGAAUUCUGCUGU [G48U C54A]	0.994
GGGGGCCACAGCAGAAGCGUUCACGUCGCGGCCCCUGUCAGAUUCUGGCGAAUCUGCGAAUUCGGCUGU [U49C U64G]	0.909
GGGGGCCACAGCAGAAGCGUUCACGUCGCGGCCCCUGUCAGAUUCUGGCGAAUCUGCGAAUUCAGCUGU [U49C U64A]	0.89
GGGGGCCACAGCAGAAGCGUUCACGUCGCGGCCCCUGUCAGAUUCUGGCGAAUCUGCGAAUUCUGCUGU [U49C]	0.988
GGGGGCCACAGCAGAAGCGUUCACGUCGCGGCCCCUGUCAGAUUCUGGGGAAUCUGCGAAUUCUGCUGU [U49G]	0.996
GGGGGCCACAGCAGAAGCGUUCACGUCGCGGCCCCUGUCAGAUUCUGGAGAAUCUGCGAAUUCUGCUGU [U49A]	1
GGGGGCCACAGCAGAAGCGUUCACGUCGCGGCCCCUGUCAGAUUCUGGAGAAUCUGCAAAUUCUGCUGU [U49A G58A]	1.01
GGGGGCCACAGCAGAAGCGUUCACGUCGCGGCCCCUGUCAGAUUCUGGAGAAUCUGCGAAUUUUGCUGU [U49A C63U]	0.94
GGGGGCCACAGCAGAAGCGUUCACGUCGCGGCCCCUGUCAGAUUCUGGGGAGUCUGCGAAUUCUGCUGU [U49G A52G]	0.94

Variant	self-cleavage
GGGGGCCACAGCAGAAGCGUUCACGUCGCGGCCCCUGUCAGAUUCUGGCGAAUCUGCGAAUACUGCUGU [U49C U62A]	0.98
GGGGGCCACAGCAGAAGCGUUCACGUCGCGGCCCCUGUCAGAUUCUGCUGAAUCUGCGAAAUCUGCUGU [G48C U61A]	0.962
GGGGGCCACAGCAGAAGCGUUCACGUCGCGGCCCCUGUCAGAUUCUGCUGAAUCUGCGAAUCCUGCUGU [G48C U62C]	0.946
GGGGGCCACAGCAGAAGCGUUCACGUCGCGGCCCCUGUCAGAUUCUGCUGAAUCUGCGAAUACUGCUGU [G48C U62A]	0.994
GGGGGCCACAGCAGAAGCGUUCACGUCGCGGCCCCUGUCAGAUUCUGUUGAAACUGCGAAUUCUGCUGU [G48U U53A]	1
GGGGGCCACAGCAGAAGCGUUCACGUCGCGGCCCCUGUCAGAUUCUGGAGAAUCUCCGAAUUCUGCUGU [U49A G56C]	0.765
GGGGGCCACAGCAGAAGCGUUCACGUCGCGGCCCCUGUCAGAUUCUGCUGAAUCUGCGAAUUCUGCUUU [G48C G68U]	0.985
GGGGGCCACAGCAGAAGCGUUCACGUCGCGGCCCCUGUCAGAUUCUGCUGAAUCUGCGAAUUCUGCUCU [G48C G68C]	0.992
GGGGGCCACAGCAGAAGCGUUCACGUCGCGGCCCCUGUCAGAUUCUGGCGAAUCUGCGAAUUUUGCUGU [U49C C63U]	0.993
GGGGGCCACAGCAGAAGCGUUCACGUCGCGGCCCCUGUCAGAUUCUGGGGUAUCUGCGAAUUCUGCUGU [U49G A51U]	0.95
GGGGGCCACAGCAGAAGCGUUCACGUCGCGGCCCCUGUCAGAUUCUGGGGGAUCUGCGAAUUCUGCUGU [U49G A51G]	0.981
GGGGGCCACAGCAGAAGCGUUCACGUCGCGGCCCCUGUCAGAUUCUGUUGAAUCUGGGAAUUCUGCUGU [G48U C57G]	0.398
GGGGGCCACAGCAGAAGCGUUCACGUCGCGGCCCCUGUCAGAUUCUGUUGAAUCUGUGAAUUCUGCUGU [G48U C57U]	0.388
GGGGGCCACAGCAGAAGCGUUCACGUCGCGGCCCCUGUCAGAUUCUGGAGAACCUGCGAAUUCUGCUGU [U49A U53C]	0.991
GGGGGCCACAGCAGAAGCGUUCACGUCGCGGCCCCUGUCAGAUUCUGGAGAAUCUGCGAAUUCUGUUGU [U49A C66U]	0.998
GGGGGCCACAGCAGAAGCGUUCACGUCGCGGCCCCUGUCAGAUUCUGGAUAAUCUGCGAAUUCUGCUGU [U49A G50U]	0.986
GGGGGCCACAGCAGAAGCGUUCACGUCGCGGCCCCUGUCAGAUUCUGGCGGAUCUGCGAAUUCUGCUGU [U49C A51G]	1.03
GGGGGCCACAGCAGAAGCGUUCACGUCGCGGCCCCUGUCAGAUUCUGGAGCAUCUGCGAAUUCUGCUGU [U49A A51C]	0.633
GGGGGCCACAGCAGAAGCGUUCACGUCGCGGCCCCUGUCAGAUUCUGGAGGAUCUGCGAAUUCUGCUGU [U49A A51G]	1.05
GGGGGCCACAGCAGAAGCGUUCACGUCGCGGCCCCUGUCAGAUUCUGCUGAAUAUGCGAAUUCUGCUGU [G48C C54A]	0.921
GGGGGCCACAGCAGAAGCGUUCACGUCGCGGCCCCUGUCAGAUUCUGCUGAAUGUGCGAAUUCUGCUGU [G48C C54G]	0.919
GGGGGCCACAGCAGAAGCGUUCACGUCGCGGCCCCUGUCAGAUUCUGCUGAAUCUGCGAAUUCUGCUGA [G48C U69A]	1.01
GGGGGCCACAGCAGAAGCGUUCACGUCGCGGCCCCUGUCAGAUUCUGCUGAAUCUGCGAAUUCUGCUGG [G48C U69G]	1.05
GGGGGCCACAGCAGAAGCGUUCACGUCGCGGCCCCUGUCAGAUUCUGCUGAAUCUGCGAAUUGUGCUGU [G48C C63G]	0.829
GGGGGCCACAGCAGAAGCGUUCACGUCGCGGCCCCUGUCAGAUUCUGCUGAAACUGCGAAUUCUGCUGU [G48C U53A]	0.968
GGGGGCCACAGCAGAAGCGUUCACGUCGCGGCCCCUGUCAGAUUCUGUUGAAUCUGCGAAUUCUACUGU [G48U G65A]	0.961
